Broadly, the Kd is the free concentration of one partner at which half of the binding sites on the other are occupied at equilibrium, for simple one-to-one binding.

In one experiment the target is TNFRSF9, Q07011. In words: Kd (SPR).
Another experiment addresses TSLP, Q969D9. In words: Kd (SPR).

B1: unnamed (protein)
chain 1: EVQLVQSGAEVKKPGESLRISCKGSGYTFSSYWISWVRQMPGKGLEWMGKIYPGDSYTNYSPSFQGQVTISADKSISTAYLQWSSLKASDTAMYYCARGYGIFDYWGQGTLVTVSS
chain 2: SYELTQPPSVSVSPGQTASITCSGDNIGDQYAHWYQQKPGQSPVLVIYQDKNRPSGIPERFSGSNSGNTATLTISGTQAMDEADYYCATYTGFGSLAVFGGGTKLTVL
As for B1, the dissociation constant (Kd) in the experiment with TNFRSF9, Q07011 turned out to be 58.6 nM.

B2: unnamed (protein)
chain 1: EVQLVQSGAEVKKPGESLRISCKGSGYTFSNYWISWVRQMPGKGLEWMGKIYPGDSYTNYSPSFQGQVTISADKSISTAYLQWSSLKASDTAMYYCARGEGLFDYWGQGTLVTVSS
chain 2: SYELTQPPSVSVSPGQTASITCSGDNIGDQYAHWYQQKPGQSPVLVIYQDKNRPSGIPERFSGSNSGNTATLTISGTQAMDEADYYCATYTGFGSLAVFGGGTKLTVL
B2 came in with a Kd with TNFRSF9, Q07011 of 51 nM.

B3: unnamed (protein)
chain 1: QMQLVESGGGVVQPGRSLRLSCAASGFTFRTYGMHWVRQAPGKGLEWVAVIWYDGSNKHYADSVKGRFTITRDNSKNTLNLQMNSLRAEDTAVYYCAREPPLFYSSWSLDNWGQGTMVTVSS
chain 2: SYVLTQPPSVSVAPGQTARITCGGNNLGSKSVHWYQQKPGQAPVLVVYDDSDRPSWIPERFSGSNSGNTATLTISRGEAGDEADYYCQVWDSSSDHVVFGGGTKLTVL
Turning to B3, in the experiment with TSLP, Q969D9, the Kd came to 0.203 nM.

B4: unnamed (protein)
chain 1: QMQLVESGGGVVQPGRSLRLSCAASGFTFRTYGMHWVRQAPGKGLEWVAVIWYDGSNKHYADSVKGRFTITRDNSKNTLNLQMNSLRAEDTAVYYCARGPFSRYDYFAMDNWGQGTMVTVSS
chain 2: SYVLTQPPSVSVAPGQTARITCGGNNLGSKSVHWYQQKPGQAPVLVVYDDSDRPSWIPERFSGSNSGNTATLTISRGEAGDEADYYCQVWDSSSDHVVFGGGTKLTVL
In turn, B4 yielded a Kd with TSLP, Q969D9 of 557 nM.

B5: unnamed (protein)
chain 1: QMQLVESGGGVVQPGRSLRLSCAASGFTFRTYGMHWVRQAPGKGLEWVAVIWYDGSNKHYADSVKGRFTITRDNSKNTLNLQMNSLRAEDTAVYYCARAPRYDWLYEAFDVWGQGTMVTVSS
chain 2: SYVLTQPPSVSVAPGQTARITCGGNNLGSKSVHWYQQKPGQAPVLVVYDDSDRPSWIPERFSGSNSGNTATLTISRGEAGDEADYYCQVWDSSSDHVVFGGGTKLTVL
B5 yielded a dissociation constant (Kd) with TSLP, Q969D9 of 83 nM.

B6: unnamed (protein)
chain 1: QMQLVESGGGVVQPGRSLRLSCAASGFTFRTYGMHWVRQAPGKGLEWVAVIWYDGSNKHYADSVKGRFTITRDNSKNTLNLQMNSLRAEDTAVYYCARAPRYDTYYEAFDVWGQGTMVTVSS
chain 2: SYVLTQPPSVSVAPGQTARITCGGNNLGSKSVHWYQQKPGQAPVLVVYDDSDRPSWIPERFSGSNSGNTATLTISRGEAGDEADYYCQVWDSSSDHVVFGGGTKLTVL
In turn, B6 had a Kd with TSLP, Q969D9 of 83.9 nM.

B7: unnamed (protein)
chain 1: QMQLVESGGGVVQPGRSLRLSCAASGFTFRTYGMHWVRQAPGKGLEWVAVIWYDGSNKHYADSVKGRFTITRDNSKNTLNLQMNSLRAEDTAVYYCARDRFDVASGSSFDFWGQGTMVTVSS
chain 2: SYVLTQPPSVSVAPGQTARITCGGNNLGSKSVHWYQQKPGQAPVLVVYDDSDRPSWIPERFSGSNSGNTATLTISRGEAGDEADYYCQVWDSSSDHVVFGGGTKLTVL
With B7, the Kd with TSLP, Q969D9 was 126 nM.

B8: unnamed (protein)
chain 1: QMQLVESGGGVVQPGRSLRLSCAASGFTFRTYGMHWVRQAPGKGLEWVAVIWYDGSNKHYADSVKGRFTITRDNSKNTLNLQMNSLRAEDTAVYYCARGPMALLYYRGFDYWGQGTMVTVSS
chain 2: SYVLTQPPSVSVAPGQTARITCGGNNLGSKSVHWYQQKPGQAPVLVVYDDSDRPSWIPERFSGSNSGNTATLTISRGEAGDEADYYCQVWDSSSDHVVFGGGTKLTVL
For the molecule B8, the Kd with TSLP, Q969D9 stood at 183 nM.

B9: unnamed (protein)
chain 1: QMQLVESGGGVVQPGRSLRLSCAASGFTFRTYGMHWVRQAPGKGLEWVAVIWYDGSNKHYADSVKGRFTITRDNSKNTLNLQMNSLRAEDTAVYYCANLKDSRYSGSYYDYWGQGTMVTVSS
chain 2: SYVLTQPPSVSVAPGQTARITCGGNNLGSKSVHWYQQKPGQAPVLVVYDDSDRPSWIPERFSGSNSGNTATLTISRGEAGDEADYYCQVWDSSSDHVVFGGGTKLTVL
In the experiment with TSLP, Q969D9, B9 showed a dissociation constant Kd of 523 nM.

B10: unnamed (protein)
chain 1: QMQLVESGGGVVQPGRSLRLSCAASGFTFRTYGMHWVRQAPGKGLEWVAVIWYDGSNKHYADSVKGRFTITRDNSKNTLNLQMNSLRAEDTAVYYCARAPRYDYYLEAFDVWGQGTMVTVSS
chain 2: SYVLTQPPSVSVAPGQTARITCGGNNLGSKSVHWYQQKPGQAPVLVVYDDSDRPSWIPERFSGSNSGNTATLTISRGEAGDEADYYCQVWDSSSDHVVFGGGTKLTVL
On to B10, for which, in the experiment with TSLP, Q969D9, the Kd came out at 238 nM.

B11: unnamed (protein)
chain 1: QMQLVESGGGVVQPGRSLRLSCAASGFTFRTYGMHWVRQAPGKGLEWVAVIWYDGSNKHYADSVKGRFTITRDNSKNTLNLQMNSLRAEDTAVYYCVRGSITWPTEYYLDYWGQGTMVTVSS
chain 2: SYVLTQPPSVSVAPGQTARITCGGNNLGSKSVHWYQQKPGQAPVLVVYDDSDRPSWIPERFSGSNSGNTATLTISRGEAGDEADYYCQVWDSSSDHVVFGGGTKLTVL
Molecule B11 came in with a Kd with TSLP, Q969D9 of 426 nM.

B12: unnamed (protein)
chain 1: QMQLVESGGGVVQPGRSLRLSCAASGFTFRTYGMHWVRQAPGKGLEWVAVIWYDGSNKHYADSVKGRFTITRDNSKNTLNLQMNSLRAEDTAVYYCARSPRYDYYWEAFDVWGQGTMVTVSS
chain 2: SYVLTQPPSVSVAPGQTARITCGGNNLGSKSVHWYQQKPGQAPVLVVYDDSDRPSWIPERFSGSNSGNTATLTISRGEAGDEADYYCQVWDSSSDHVVFGGGTKLTVL
B12: the Kd in the experiment with TSLP, Q969D9 turned out to be 290 nM.

B13: unnamed (protein)
chain 1: QMQLVESGGGVVQPGRSLRLSCAASGFTFRTYGMHWVRQAPGKGLEWVAVIWYDGSNKHYADSVKGRFTITRDNSKNTLNLQMNSLRAEDTAVYYCARPPYYYGTTYYFDYWGQGTMVTVSS
chain 2: SYVLTQPPSVSVAPGQTARITCGGNNLGSKSVHWYQQKPGQAPVLVVYDDSDRPSWIPERFSGSNSGNTATLTISRGEAGDEADYYCQVWDSSSDHVVFGGGTKLTVL
Take B13: in the experiment with TSLP, Q969D9, the Kd came to 300 nM.

B14: unnamed (protein)
chain 1: QMQLVESGGGVVQPGRSLRLSCAASGFTFRTYGMHWVRQAPGKGLEWVAVIWYDGSNKHYADSVKGRFTITRDNSKNTLNLQMNSLRAEDTAVYYCARSPRYYWYYEAFDVWGQGTMVTVSS
chain 2: SYVLTQPPSVSVAPGQTARITCGGNNLGSKSVHWYQQKPGQAPVLVVYDDSDRPSWIPERFSGSNSGNTATLTISRGEAGDEADYYCQVWDSSSDHVVFGGGTKLTVL
In turn, B14 returned a Kd with TSLP, Q969D9 of 81.9 nM.

B15: unnamed (protein)
chain 1: QMQLVESGGGVVQPGRSLRLSCAASGFTFRTYGMHWVRQAPGKGLEWVAVIWYDGSNKHYADSVKGRFTITRDNSKNTLNLQMNSLRAEDTAVYYCNAAIRTTVRTSAQEYWGQGTMVTVSS
chain 2: SYVLTQPPSVSVAPGQTARITCGGNNLGSKSVHWYQQKPGQAPVLVVYDDSDRPSWIPERFSGSNSGNTATLTISRGEAGDEADYYCQVWDSSSDHVVFGGGTKLTVL
Molecule B15 came in with a Kd with TSLP, Q969D9 of 103 nM.

B16: unnamed (protein)
chain 1: QMQLVESGGGVVQPGRSLRLSCAASGFTFRTYGMHWVRQAPGKGLEWVAVIWYDGSNKHYADSVKGRFTITRDNSKNTLNLQMNSLRAEDTAVYYCTRDGGLLFAYYAMDYWGQGTMVTVSS
chain 2: SYVLTQPPSVSVAPGQTARITCGGNNLGSKSVHWYQQKPGQAPVLVVYDDSDRPSWIPERFSGSNSGNTATLTISRGEAGDEADYYCQVWDSSSDHVVFGGGTKLTVL
Consider B16, for which, in the experiment with TSLP, Q969D9, the dissociation constant (Kd) turned out to be 110 nM.

B17: unnamed (protein)
chain 1: QMQLVESGGGVVQPGRSLRLSCAASGFTFRTYGMHWVRQAPGKGLEWVAVIWYDGSNKHYADSVKGRFTITRDNSKNTLNLQMNSLRAEDTAVYYCARAPRYDDRWEAFDVWGQGTMVTVSS
chain 2: SYVLTQPPSVSVAPGQTARITCGGNNLGSKSVHWYQQKPGQAPVLVVYDDSDRPSWIPERFSGSNSGNTATLTISRGEAGDEADYYCQVWDSSSDHVVFGGGTKLTVL
B17 yielded an equilibrium dissociation constant (Kd) in the experiment with TSLP, Q969D9 of 193 nM.

B18: unnamed (protein)
chain 1: QMQLVESGGGVVQPGRSLRLSCAASGFTFRTYGMHWVRQAPGKGLEWVAVIWYDGSNKHYADSVKGRFTITRDNSKNTLNLQMNSLRAEDTAVYYCARDESTGDYYYYMDVWGQGTMVTVSS
chain 2: SYVLTQPPSVSVAPGQTARITCGGNNLGSKSVHWYQQKPGQAPVLVVYDDSDRPSWIPERFSGSNSGNTATLTISRGEAGDEADYYCQVWDSSSDHVVFGGGTKLTVL
Turning to B18, the Kd with TSLP, Q969D9 was found to be 229 nM.

B19: unnamed (protein)
chain 1: QMQLVESGGGVVQPGRSLRLSCAASGFTFRTYGMHWVRQAPGKGLEWVAVIWYDGSNKHYADSVKGRFTITRDNSKNTLNLQMNSLRAEDTAVYYCARSPRYDWYWEAFDVWGQGTMVTVSS
chain 2: SYVLTQPPSVSVAPGQTARITCGGNNLGSKSVHWYQQKPGQAPVLVVYDDSDRPSWIPERFSGSNSGNTATLTISRGEAGDEADYYCQVWDSSSDHVVFGGGTKLTVL
The molecule B19 came in with a dissociation constant (Kd) in the experiment with TSLP, Q969D9 of 240 nM.
